From patent publication US7220576B2, “Methods and compositions for protein expression and purification” (Lifesensors, Inc., priority 2002, dated 2007)
“Also recorded” adds a separate entry of the source.

How the values were obtained:
Ulp1 Hydrolase = biological target: T1, Ulp1 Hydrolase (Saccharomyces cerevisiae, UniProt Q02724); experiment: In vitro Ulp1 cleavage of His6SUMO-GFP under various additives/conditions; assay type: biochemical, yeast; conditions: 4 to 37° C.
T1 construct: C-terminal His-tagged SUMO hydrolase/protease Ulp (403–621)p (21) (27) was expressed from pET24d; His tag (C); made in house; host or cells: E. coli Rosetta (DE3) pLysS, vector pET24d
T1 sequence (Q02724 403-621): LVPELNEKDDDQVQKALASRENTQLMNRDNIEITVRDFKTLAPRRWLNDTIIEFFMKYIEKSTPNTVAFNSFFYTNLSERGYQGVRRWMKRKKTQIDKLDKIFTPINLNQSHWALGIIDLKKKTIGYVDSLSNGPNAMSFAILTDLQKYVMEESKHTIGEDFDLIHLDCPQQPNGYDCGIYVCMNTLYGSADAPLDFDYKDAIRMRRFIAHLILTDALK
Description: Ni-NTA purified His6SUMO-GFP was incubated with Ulp1 under the indicated conditions for one hour at room temperature unless indicated otherwise. Low molecular weight markers (LMW) are also provided.
Ni-NTA purified His6SUMO-GFP was incubated with Ulp1 and 10 mM of various protease inhibitors for 1 hour at room temperature. Lane markers: Norm is addition of Ulp1 and N-ethymaleimide (NEM) to the substrate at the same time, Pre is the incubation of Ulp1 with NEM prior to the addition of substrate, +Ve is the absence of any inhibitor, −Ve is in the absence of Ulp1, lane 1 is with E-64, lane 2 is with EDTA, lane 3 is with leupeptin, lane 4 is with NEM, lane 5 is with pepstatin, lane 6 is with TLCK. Low molecular weight markers (LMW) are also provided.
The effects of various additives/conditions and temperature upon the in vitro cleavage reaction were determined as follows: His6smt3MeGFP was expressed from pET24d in Rosetta (DE3) pLysS (Novagen). The recombinant protein was purified as before using Ni-NTA agarose (Qiagen) and then buffer exchanged into 20 mM Tris-HCl pH 8.0, 150 mM NaCl and 5 mM β-mercaptoethanol using a PD-10 column (AP Biotech). […]

E. coli [1] = experiment: Soluble versus insoluble fraction of fusion proteins expressed in E. coli; assay type: cell-based
Description: E. coli were harvested by mild centrifugation and washed once with PBS buffer. Cells were resuspended in 4 ml of PBS and ruptured by several pulses of sonication. Unbroken cells were removed by mild centrifugation (5 min at 1500×g) and supernatants were sonicated again to ensure complete cell lysis. An aliquot (5 μl) was mixed with 2% SDS to ensure that no viscosity is detected owing to lysis of unbroken cells. After ensuring that no unbroken cells remained in the lysate, insoluble material consisting of cell walls, inclusion bodies and membrane fragments was sedimented by centrifugation (18,000×g for 10 min). The supernatant was considered “Soluble fraction”.
The pellets were washed from any remaining soluble proteins, lipids and peptidoglycan as follows. Pellets were resuspended in 600 μl of PBS and to the suspensions 600 μl of solution containing 3 M urea and 1% Tri ton X100 was added. The suspension was briefly vortexed and insoluble material was collected by centrifugation as above. The PBS/Urea/Triton wash was repeated two more times to ensure complete removal of soluble proteins. The washed pellets, designated as “insoluble fraction,” consisted primarily of inclusion bodies formed by over expressed proteins. Approximately 10 μg of protein from each fraction was resolved on 12% SDS-PAGE minigels and stained with Coomassie Brilliant Blue.
Human nuclear receptor proteins, such as steroid receptors, contain ligand-binding domains. These proteins have proven hard to express in soluble form in E. coli. […] The ligand-binding domain of LXR was expressed as SUMO fusion in Rosetta plysS cell at 20° C. or 37° C. and the pattern of soluble and insoluble protein was analyzed. […] Further proof that SUMO promotes solubility of previously insoluble proteins was gained by expressing MAPKAP2 kinase as a SUMO-fusion in E. coli. […] Numbers at the top of the gel, 0.1, 0.25 and 0.5 refer to the mM concentration of inducer IPTG, in the culture. The original induced culture (I), supernatant from lysed cells (S) and resuspended pellet (P) were analyzed on 12% SDS-PAGE. […] Although induction at 37° C. allows greater degree of expression, more than 50% of the kinase is still insoluble under these conditions. Cleavage of SUMO-MAPKKAP2 kinase by SUMO hydrolase is described in Example III. Also see FIG. 18.

SUMO hydrolase Ulp1 = biological target: T2, SUMO hydrolase Ulp1 (Saccharomyces cerevisiae, UniProt Q02724); experiment: In vitro cleavage of purified SUMO fusion proteins by SUMO hydrolase Ulp1; assay type: biochemical, yeast; conditions: for In vitro cleavage by Ulp1 / SUMO hydrolase: purified fusion protein from E. coli
T2 construct: C-terminal His-tagged SUMO hydrolase/protease Ulp (403–621)p (21) (27) was expressed from pET24d; His tag (C); made in house; host or cells: E. coli Rosetta (DE3) pLysS, vector pET24d
T2 sequence (Q02724 403-621): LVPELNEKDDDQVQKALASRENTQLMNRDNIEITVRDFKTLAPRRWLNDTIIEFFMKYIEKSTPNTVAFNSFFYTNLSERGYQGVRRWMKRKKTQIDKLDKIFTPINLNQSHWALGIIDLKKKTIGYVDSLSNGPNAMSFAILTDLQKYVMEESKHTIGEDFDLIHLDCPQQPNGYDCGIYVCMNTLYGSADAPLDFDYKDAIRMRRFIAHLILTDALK

E. coli [2] = experiment: GFP fluorescence in soluble fractions of E. coli; assay type: cell-based; conditions: 37° C., approx. 0.1 mg soluble protein, Ex 485 nm/Em 510 nm
Description: GFP fluorescence was measured in soluble fractions (approx. 0.1 mg of soluble protein in a final volume of 40 μl) using Fluoroscan Accent FL fluorometer (LabSystems) with Excitation 485 nm/Emission 510 nm filter set with the exposure set to 40 sec. The data are presented in Arbitrary Units (AU).
The design and construction of all the UBL E. coli expression vectors has been described above. The DNA sequences, accession numbers of the UBL-GFP fusion proteins, and translation frames are shown FIGS. 25–32. […] Un-fused GFP is generally poorly expressed in E. coli. […] Induced cells were broken by sonication and soluble proteins were analyzed on SDS-polyacrylamide gels. […] To determine if the fusion proteins were folded correctly, we determined the fluorescence properties of proteins in the soluble fraction.

B1: Ulp1: C-terminal His-tagged yeast SUMO hydrolase/protease Ulp (403–621) expressed in E. coli (protein, UniProt Q02724 403-621, looked up, fragment)
chain: LVPELNEKDDDQVQKALASRENTQLMNRDNIEITVRDFKTLAPRRWLNDTIIEFFMKYIEKSTPNTVAFNSFFYTNLSERGYQGVRRWMKRKKTQIDKLDKIFTPINLNQSHWALGIIDLKKKTIGYVDSLSNGPNAMSFAILTDLQKYVMEESKHTIGEDFDLIHLDCPQQPNGYDCGIYVCMNTLYGSADAPLDFDYKDAIRMRRFIAHLILTDALK
modifications: C-terminal His tag
notes: C-terminal His-tagged yeast SUMO hydrolase/protease Ulp (403–621) expressed in E. coli
- Effect of temperature on Ulp1 hydrolase activity (Ulp1 Hydrolase): extremely active at 37 °C as well as at 4 °C; also recorded: Ulp1 is active over a broad range of temperatures,

B2: SUMO-LXR: human liver X receptor ligand binding domain as SUMO fusion (SEQ ID NO: 25) (protein)
chain: MGHHHHHHGSDSEVNQEAKPEVKPEVKPETHINLKVSDGSSEIFFKIKKTTPLRRLMEAFAKRQGKEMDSLRFLYDGIRIQADQTPEDLDMEDNDIIEAHREQIGGMSLWLGAPVPDIPPDSAVELWKPGAQDASSQAQGGSSCILREEARMPHSAGGTAGVGLEAAEPTALLTRAEPPSEPTEIRPQKRKKGPAPKMLGNELCSVCGDKASGFHYNVLSCEGCKGFFRRSVIKGAHYICHSGGHCPMDTYMRRKCQECRLRKCRQAGMREECVLSEEQIRLKKLKRQEEEQAHATSLPPRRSSPPQILPQLSPEQLGMIEKLVAAQQQCNRRSFSDRLRVTPWPMAPDPHSREARQQRFAHFTELAIVSVQEIVDFAKQLPGFLQLSREDQIALLKTSAIEVMLLETSRRYNPGSESITFLKDFSYNREDFAKAGLQVEFINPIFEFSRAMNELQLNDAEFALLIAISIFSADRPNVQDQLQVERLQHTYVEALHAYVSIHHPHDRLMFPRMLMKLVSLRTLSSVHSEQVFALRLQDKKLPPLLSEIWDVHE
- Fraction of protein solublized by SUMO fusion (E. coli [1]; induced at 20° C.): about 40%
- Solubility of fusion protein (E. coli [1]; induced at 37° C.): hardly any SUMO-LXR was soluble

B3: β-GUS: SUMO fusion of 65 KDa E. coli β-glucuronidase (SEQ ID NO: 23) (protein)
chain: MGHHHHHHGSDSEVNQEAKPEVKPEVKPETHINLKVSDGSSEIFFKIKKTTPLRRLMEAFAKRQGKEMDSLRFLYDGIRIQADQTPEDLDMEDNDIIEAHREQIGGMEFMLRPVETPTREIKKLDGLWAFSLDRENCGIDQRWWESALQESRAIAVPGSFNDQFADADIRNYAGNVWYQREVFIPKGWAGQRIVLRFDAVTHYGKVWVNNQEVMEHQGGYTPFEADVTPYVIAGKSVRITVCVNNELNWQTIPPGMVITDENGKKKQSYFHDFFNYAGIHRSVMLYTTPNTWVDDITVVTHVAQDCNHASVDWQVVANGDVSVELRDADQQVVATGQGTSGTLQVVNPHLWQPGEGYLYELCVTAKSQTECDIYPLRVGIRSVAVKGQQFLINHKPFYFTGFGRHEDADLRGKGFDNVLMVHDHALMDWIGANSYRTSHYPYAEEMLDWADEHGIVVIDETAAVGFNLSLGIGFEAGNKPKELYSEEAVNGETQQAHLQAIKELIARDKNHPSVVMWSIANEPDTRPQVHGNISPLAEATRKLDPTRPITCVNVMFCDAHTDTISDLFDVLCLNRYYGWYVQSGDLETAEKVLEKELLAWQEKLHQPIIITEYGVDTLAGLHSMYTDMWSEEYQCAWLDMYHRVFDRVSAVVGEQVWNFADFATSQGILRVGGNKKGIFTRDRKPKSAAFLLQKRWTGMNFGEKPQQGGKQ
- In vitro cleavage by SUMO hydrolase after addition of urea (SUMO hydrolase Ulp1; 2M urea, 20 min at room temperature): complete cleavage
- In vitro cleavage by Ulp1 / SUMO hydrolase (SUMO hydrolase Ulp1): partially resistant to cleavage

B4: Hub1-GFP (protein)
chain: MGHHHHHHGSDSEVNQEAKPEVKPEVKPETHINLKVSDGSSEIFFKIKKTTPLRRLMEAFAKRQGKEMDSLRFLYDGIRIQADQAPEDLDMEDNDIIEAHREQIGG
- Solubility of UBL-GFP fusion (soluble panel of stained gel) (E. coli [1]; 37° C., FIG. 4A): able to solublize the GFP
- GFP fluorescence of soluble fraction (correct folding) (E. coli [2]): able to fluoresce

B5: SUMO kinase: MAPKAP2 kinase expressed as a SUMO-fusion in E. coli (SEQ ID NO: 29) (protein)
chain: MGHHHHHHGSDSEVNQEAKPEVKPEVKPETHINLKVSDGSSEIFFKIKKTTPLRRLMEAFAKRQGKEMDSLRFLYDGIRIQADQTPEDLDMEDNDIIEAHREQIGGMQFHVKSGLQIKKNAIIDDYKVTSQVLGLGINGKVLQIFNKRTQEKFALKMLQDCPKARREVELHWRASQCPHIVRIVDVYENLYAGRKCLLIVMECLDGGELFSRIQDRGDQAFTEREASEIMKSIGEAIQYLHSINIAHRDVKPENLLYTSKRPNAILKLTDFGFAKETTSHNSLTTPCYTPYYVAPEVLGPEKYDKSCDMWSLGVIMYILLCGYPPFYSNHGLAISPGMKTRIRMGQYEFPNPEWSEVSEEVKMLIRNLLKTEPTQRMTITEFMNHPWIMQSTKVPQTPLHTSRVLKEDKERWEDVKEEMTSALATMRVDYEQIK
- Soluble form as fusion to SUMO (E. coli [1]; as summarised in Example III for FIG. 8): 95%
- Soluble fraction of fusion protein (E. coli [1]; induced at 20° C. with 0.25 mM IPTG): 90%
- Insoluble fraction of fusion protein (E. coli [1]; induction at 37° C.): more than 50%
- In vitro cleavage by Ulp1 / SUMO hydrolase (SUMO hydrolase Ulp1): efficiently cleaved
